Laboratory results reported in US20050287132A1, “Biliverdin reductase fragments and variants, and methods of using biliverdin reductase and such fragments and variants” (University of Rochester, priority 1999, published 2005).
Positions count from the first letter of the chain named. One block for each molecule: values may come before it.

Columns and labels:
PKC = assay: Effect of BVR and peptides on PKC activity (MBP substrate, kinetic analysis); type: biochemical; details: for Vmax of the PKC reaction with respect to ATP / Vmax of the PKC reaction with respect to MBP: in the presence of 50 μM BVR or peptide; for Km for the substrate (MBP) of the PKC reaction: in the presence of 50 μM peptide; for nature of kinetics with respect to substrate concentration: MBP varied
Procedure: FIGS. 11A-C are graphs depicting the role of BVR in increasing protein kinase C activity. FIG. 11A depicts the dose-dependence of PKC activity in the presence of BVR or PKC inhibitor peptide (“PKCI”) in an assay system containing 0.5 μg/ml PKC, 50 μM unlabeled ATP, 5 μCi[^32γP]-ATP and 1 mg/ml MBP and carried out as described infra. FIGS. 11B-C are the kinetic analyses of PKC activity carried out with respect to MBP (FIG. 11B) and with respect to ATP (FIG. 11C) in the presence or absence of 50 μM BVR.
FIGS. 12A-C are graphs illustrating the effect of various rBVR fragments on PKC activity. Protein kinase C was incubated at 30° C. with buffer or with the indicated peptides (50 μM) for 15 min prior to addition to a kinase assay using MBP as substrate. FIG. 12A depicts the relative activity for each sample normalizing to that of the PKC and buffer control value. FIGS. 12B-C are the kinetic analyses of PKC with respect to substrate MBP (FIG. 12B) and ATP (FIG. 12C) in the presence or absence of BVR peptide fragments (50 μM). BVR1 peptide corresponds to SEQ. ID. No. 34 and BVR2 peptide corresponds to SEQ. ID. No. 19.
Incubation time was 8 min at 30° C.

[1] = Biliverdin reductase activity of E. coli expressed hBVR wild type and mutants (Example 1); type: biochemical, human; details: for Activity (nmol bilirubin/min/mg) pH 6.7 + NADH: pH 6.7, NADH cofactor; for Activity (nmol bilirubin/min/mg) pH 6.7 + NADH / Activity (nmol bilirubin/min/mg) pH 8.7 + NADPH: 25°; for Activity (nmol bilirubin/min/mg) pH 8.7 + NADPH: pH 8.7, NADPH cofactor; for Activity % pH 6.7 + NADH / Activity % pH 8.7 + NADPH: Cys→Ala mutations; for Activity % pH 6.7 + NADH: wild type = 100, pH 6.7, NADH; for Activity % pH 8.7 + NADPH: wild type = 100, pH 8.7, NADPH
Procedure: SalI linkers are underlined in each primer. The products were digested with SalI and cloned into the vector pGEX 4T-2. Orientation was determined by restriction analysis and confirmed by sequencing. The ligation places the BVR coding region in frame with the GST protein of the vector. GST-BVR fusion proteins were purified from bacterial clones containing the plasmid, and grown overnight using a glutathione-sepharose 4B column (Pharmacia). The reductase portion of the fusion protein was released by thrombin protease treatment.
Activity was determined as previously described (Kutty et al., J. Biol. Chem. 256:3956-3962 (1981); Huang et al., J. Biol. Chem. 264:7844-7849 (1989), which are hereby incorporated by reference). Activity was determined in a 1 ml assay volume that contained 0.1 M Tris/HCl, pH 8.7 NADPH (100 μM), and biliverdin (5 μM). Reductase activity was also measured using NADH (1 mM) as the cofactor; in this case 0.1 M potassium phosphate pH 6.75, was substituted for Tris/HCl. SDS/PAGE was performed by the method of Laemmli, Nature 227:680-685 (1970), which is hereby incorporated by reference. Western blot analysis was performed using anti-serum to human kidney biliverdin reductase as previously described (Maines et al., Arch. Biochem. Biophys. 300:320-326 (1993), which is hereby incorporated by reference). The relative amounts of immunoreactive protein were determined by scanning the blot using a laser densitometer and comparing the area under the peak for each mutant with the wild type. The rate of activity was measured as the increase in 450 nm absorbance at 25° C. Specific activity is expressed as nmol bilirubin/min/ mg protein.

[2] = Biliverdin reductase catalytic activity of recombinant wild type and mutant hBVR (Example 2, FIG. 3); type: biochemical, human; details: pH/cofactor not stated
Procedure: FIGS. 3A-C are graphs depicting the effects of mutation of Gly^17, Ser^149, and Lys^296 on BVR catalytic activity. Purified preparations of recombinant wild type and mutant BVR with substitution of Gly^17 (FIG. 3A), Ser^149 (FIG. 3B), or Lys^296 (FIG. 3C) with Ala were assessed for BVR activity at pH 6.5 using NADH as cofactor and at pH 8.7 with NADPH as cofactor. Values presented are in percent wild type activity for each pH. The specific activity of the wild type preparation was 1744 nmol bilirubin produced min^−1 mg^−1 at pH 6.5 and 1147 nmol bilirubin produced min^−1 mg^−1 at pH 8.7. Values presented are representative of 2-4 determinations.
GST-BVR fusion proteins were prepared as described in Example 1. Human kidney biliverdin reductase was purified to homogeneity as described by Maines et al., Arch. Biochem. Biophys. 300:320-326 (1993), which is hereby incorporated by reference. The purified reductase preparations were judged to be homogenous by SDS-PAGE. Protein concentration was determined by the method of Bradford, Anal. Biochem. 72:248-254 (1976), which is hereby incorporated by reference.
Activity was determined as previously described by Huang et al., J. Biol. Chem. 264:7844-7849 (1989), which is hereby incorporated by reference, using NADPH as the cofactor at pH 8.7 in 0.1 M […] or NADH at pH 6.5 in […]. The rate of activity was measured as the increase in 450 nm absorbance at 25° C. Specific activity is expressed in units/mg protein, where 1 unit catalyzes the formation of 1 nmol bilirubin/min.

[3] = target: protein kinase C (a mixture containing equal amounts of isozymes α, β and γ) (Promega); assay: cell-based or functional assay
[4] = target: protein kinase C (a mixture containing equal amounts of isozymes α, β and γ) (Promega)

Molecule: KKRIMHC [peptide 1, ID; No. 18]
Vmax of the PKC reaction with respect to ATP (PKC): 4.2 pmol/min
Vmax of the PKC reaction with respect to MBP (PKC): 2.92 pmol/min
Km for the substrate (MBP) of the PKC reaction (PKC): 0.39 mg/mL
effect on PKC activity (PKC; peptide 50 μM, MBP substrate): stimulated PKC activity
nature of kinetics with respect to substrate concentration (PKC; peptide 50 μM): mixed kinetics

Km for the substrate (MBP) of the PKC reaction (PKC): 0.12 mg/mL
Molecule: QKLCHQKK [peptide 2, ID; No. 19]
Vmax of the PKC reaction with respect to ATP (PKC): 3.12 pmol/min
Vmax of the PKC reaction with respect to MBP (PKC): 1.82 pmol/min
inhibition of PKC activity (PKC; peptide 50 μM, MBP substrate): more than 75%
nature of kinetics with respect to substrate concentration (PKC; peptide 50 μM): uncompetitive

Molecule: RKRCLRRL [PKCI peptide, ID; No. 29, reference compound]
dose dependence of PKC activity (^32P into MBP) (PKC; PKC preincubated 15 min at 30° C., MBP substrate): dose-dependent inhibition of activity
inhibition of PKC activity (PKC; peptide 50 μM, MBP substrate): 90%

B1: Ser^44: hBVR SEQ. ID. No. 1 with Ser^44→Ala within one of the kinase motifs (protein, listed as Homo sapiens)
chain: MNAEPERKFGVVVVGVGRAGSVRMRDLRNPHPSSAFLNLIGFVARRELGSIDGVQQISLEDALSSQEVEVAYICSESSSHEDYIRQFLNAGKHVLVEYPMTLSLAAAQELWELAEQKGKVLHEEHVELLMEEFAFLKKEVVGKDLLKGSLLFTSDPLEEDRFGFPAFSGISRLTWLVSLFGELSLVSATLEERKEDQYMKMTVCLETEKKSPLSWIEEKGPGLKRNRYLSFHFKSGSLENVPNVGVNKNIFLKDQNIFVQKLLGQFSEKELAAEKKRILHCLGLAEEIQKYCCSRK
Activity (nmol bilirubin/min/mg) pH 6.7 + NADH [1]: 7443 nmol bilirubin/min/mg
increase in activity at pH 6.7 with NADH ([1]; pH 6.7, NADH, versus wild type): 2.5 fold
Activity (nmol bilirubin/min/mg) pH 8.7 + NADPH [1]: 333 nmol bilirubin/min/mg
reduction in NADPH-dependent activity ([1]; pH 8.7, NADPH, versus wild type): 70-75%
enzyme activity [2]: did not display loss of enzyme activity

Km of the PKC reaction for the substrate MBP, peptide 50 µM (control 0.165 mg/ml) [3]: 0.12 mg/mL
Vmax of the PKC reaction with respect to the cofactor ATP, peptide 50 µM (control 3.81 pmol/min) [3]: 3.12 pmol/min
Vmax of the PKC reaction with respect to the substrate MBP, peptide 50 µM (control 2.25 pmol/min) [3]: 1.82 pmol/min
inhibition of PKC activity with MBP as substrate, peptide 50 µM [3]: > 75%
Molecule: QKLCHQKK [BVR peptide Q288KLCHQKK295 (peptide 2)]

B2: Lys^92/His^93: hBVR with Lys^92His^93→Ala-Ala within the oxidoreductase motif (protein, UniProt P53004 3-296, looked up, variant K92A H93A)
Biliverdin reductase A: AEPERKFGVVVVGVGRAGSVRMRDLRNPHPSSAFLNLIGFVSRRELGSIDGVQQISLEDALSSQEVEVAYICSESSSHEDYIRQFLNAGAAVLVEYPMTLSLAAAQELWELAEQKGKVLHEEHVELLMEEFAFLKKEVVGKDLLKGSLLFTAGPLEEERFGFPAFSGISRLTWLVSLFGELSLVSATLEERKEDQYMKMTVCLETEKKSPLSWIEEKGPGLKRNRYLSFHFKSGSLENVPNVGVNKNIFLKDQNIFVQKLLGQFSEKELAAEKKRILHCLGLAEEIQKYCCSRK
Activity (nmol bilirubin/min/mg) pH 6.7 + NADH [1]: 0 nmol bilirubin/min/mg
reductase activity relative to the control (wild type) ([1]; pH 6.7 with NADH): loss of enzyme activity
Activity (nmol bilirubin/min/mg) pH 8.7 + NADPH [1]: 0 nmol bilirubin/min/mg
reductase activity relative to the control (wild type) ([1]; pH 8.7 with NADPH): loss of enzyme activity

B3: Cys^74,204^,^281,292,293: hBVR construct with all 5 Cys residues combined changed to Ala (protein, UniProt P53004 3-296, looked up, variant C74A C204A C281A C292A C293A)
Biliverdin reductase A: B2 Biliverdin reductase A with C72A, A90K, A91H, C202A, C279A, C290A, C291A
Activity % pH 6.7 + NADH [1]: 1%
Activity % pH 8.7 + NADPH [1]: 10%

B4: Cys^74: hBVR with Cys^74→Ala within a substrate binding domain (protein, UniProt P53004 3-296, looked up, variant C74A)
Biliverdin reductase A: B2 Biliverdin reductase A with C72A, A90K, A91H
Activity % pH 6.7 + NADH [1]: 44%
Activity % pH 8.7 + NADPH [1]: 45%

B5: Cys^281: hBVR with Cys^281→Ala within the zinc finger domain (protein, UniProt P53004 3-296, looked up, variant C281A)
Biliverdin reductase A: B2 Biliverdin reductase A with A90K, A91H, C279A
Activity % pH 6.7 + NADH [1]: 31%
Activity % pH 8.7 + NADPH [1]: 23%

B6: Cys^292^,^293: hBVR construct with Cys^292+Cys^293→Ala mutations (protein, UniProt P53004 3-296, looked up, variant C292A C293A)
Biliverdin reductase A: B2 Biliverdin reductase A with A90K, A91H, C290A, C291A
Activity % pH 6.7 + NADH [1]: 94%
Activity % pH 8.7 + NADPH [1]: 100%

Km of the PKC reaction for the substrate MBP, peptide 50 µM (control 0.165 mg/ml) [3]: 0.39 mg/mL
Vmax of the PKC reaction with respect to the cofactor ATP, peptide 50 µM (control 3.81 pmol/min) [3]: 4.2 pmol/min
Vmax of the PKC reaction with respect to the substrate MBP, peptide 50 µM (control 2.25 pmol/min) [3]: 2.92 pmol/min
Molecule: KKRIMHC [BVR peptide K274KRIMHC280 (peptide 1)]

inhibition of PKC activity, peptide at the same concentration as BVR peptide 2 [3]: 90%
Molecule: RKRCLRRL [PKC inhibitor peptide RKRCLRRL]

B7: rat biliverdin reductase as used in the PKC activity assays (protein)
chain: AEPKRKFGVVVVGVGRAGSVRLRDLKDPRSAAFLNLIGFVSRRELGSLDEVRQISLEDALRSQEIDVAYICSESSSHEDYIRQFLQAGKHVLVEYPMTLSFAAAQELWELAAQKGRVLHEEHVELLMEEFEFLRREVLGKELLKGSLRFTASPLEEERFGFPAFSGISRLTWLVSLFGELSLISATLEERKEDQYMKMTVQLETQNKGLLSWIEEKGPGLKRNRYVNFQFTSGSLEEVPSVGVNKNIFLKDQDIFVQKLLDQVSAEDLAAEKKRIMHCLGLASDIQKLCHQKK
Km of the PKC reaction for the substrate MBP, upon addition of BVR [4]: substrate Km increasing from 0.145 to 0.16 upon addition of BVR to the reaction
PKC activity, incorporation of 32P into MBP, after 15 min preincubation of PKC with varying concentrations of BVR [4]: incorporation of ^32P into MBP was increased in a dose-dependent manner in the presence of BVR
Vmax of the PKC reaction with respect to ATP, in the presence of 50 µM BVR [4]: increased from 3.3 to 4.9 and 1.7 to 2.9 pmol/min, respectively
Vmax of the PKC reaction with respect to MBP, in the presence of 50 µM BVR [4]: increased from 3.3 to 4.9 and 1.7 to 2.9 pmol/min, respectively
